Legend:
[1] = molecular target: microtubules (native, from pig brain tubulin) (pig) (UniProt P02550); assay: co-sedimentation; constant microtubule concentration (1 µM for spastin, 2 µM for katanin), increasing enzyme; 1 mM ADP; BRB80, room temperature, 100,000 g; stoichiometry by extrapolation of the saturation curve
[2] = molecular target: microtubules (native, from pig brain tubulin) (pig) (UniProt P02550); assay: co-sedimentation; constant microtubule concentration (1 µM for spastin, 2 µM for katanin), increasing enzyme; 1 mM ATP; BRB80, room temperature, 100,000 g; stoichiometry by extrapolation of the saturation curve
[3] = molecular target: microtubules (native, from pig brain tubulin) (pig) (UniProt P02550); assay: co-sedimentation; constant microtubule concentration (1 µM for spastin, 2 µM for katanin), increasing enzyme; 1 mM ATP-γS; BRB80, room temperature, 100,000 g; stoichiometry by extrapolation of the saturation curve
[4] = molecular target: subtilisin-treated microtubules (pig) (UniProt P02550); assay: co-sedimentation; fixed E309Q-katanin concentration, variable microtubule concentrations (native or subtilisin-treated, up to 4 µM); 100,000 g, BRB80, room temperature; SDS-PAGE of supernatants and pellets
[5] = molecular target: microtubules (native, from pig brain tubulin) (pig) (UniProt P02550); assay: as above
[6] = molecular target: microtubules (native, from pig brain tubulin) (pig) (UniProt P02550); assay: single-molecule TIRF microscopy; microtubules attached to the flow cell; 10 nM GFP-enzyme; buffer 5 with 80 mM NaCl (ionic strength 0.145 M); 1 mM ATP; dwell time is a mean, not an exponential fit; settings: for landing rate: scale: (10 µm)^−1 ·
[7] = molecular target: microtubules (native, from pig brain tubulin) (pig) (UniProt P02550); assay: single-molecule TIRF microscopy; microtubules attached to the flow cell by anti-tubulin antibody; 5–10 nM GFP-enzyme in solution; 1 mM AMPPNP; landing rates and dwell times from kymographs; dwell times are lower limits; settings: for landing rate: scale: (10 µm)^−1 ·
[8] = molecular target: microtubules (native, from pig brain tubulin) (pig) (UniProt P02550); assay: single-molecule TIRF microscopy; microtubules attached to the flow cell by anti-tubulin antibody; 5–10 nM GFP-enzyme in solution; 1 mM ATP-γS; landing rates and dwell times from kymographs; settings: for landing rate: scale: (10 µm)^−1 ·
[9] = molecular target: microtubules (native, from pig brain tubulin) (pig) (UniProt P02550); assay: single-molecule TIRF microscopy; microtubules attached to the flow cell; 10 nM GFP-enzyme; buffer 5 with 160 mM NaCl (ionic strength 0.225 M); 1 mM ATP; mono-exponential lifetime; settings: for landing rate: scale: (10 µm)^−1 ·
[10] = molecular target: microtubules (native, from pig brain tubulin) (pig) (UniProt P02550); assay: single-molecule TIRF microscopy; microtubules attached to the flow cell by anti-tubulin antibody; 5–10 nM GFP-enzyme in solution; 1 mM ATP; landing rates and dwell times from kymographs; settings: for landing rate: scale: (10 µm)^−1 ·
[11] = molecular target: microtubules (native, from pig brain tubulin) (pig) (UniProt P02550); assay: single-molecule TIRF microscopy; microtubules attached to the flow cell; 10 nM GFP-enzyme; buffer 5 with 300 mM NaCl (ionic strength 0.365 M); 1 mM ATP; mono-exponential lifetime; settings: for landing rate: scale: (10 µm)^−1 ·
[12] = molecular target: microtubules (native, from pig brain tubulin) (pig) (UniProt P02550); assay: co-sedimentation; fixed katanin construct concentration (1 µM), increasing microtubule concentrations (0 to 10 µM); band density fitted to a Hill function
[13] = molecular target: the molecule itself; assay: non-reducing SDS-PAGE; coiled coil wild type construct under oxidizing conditions (omission of reducing agents), compared with 1 mM mercapto-ethanol

Sequence of subtilisin-treated microtubules (pig) (P02550 whole entry, chain 1 of 2): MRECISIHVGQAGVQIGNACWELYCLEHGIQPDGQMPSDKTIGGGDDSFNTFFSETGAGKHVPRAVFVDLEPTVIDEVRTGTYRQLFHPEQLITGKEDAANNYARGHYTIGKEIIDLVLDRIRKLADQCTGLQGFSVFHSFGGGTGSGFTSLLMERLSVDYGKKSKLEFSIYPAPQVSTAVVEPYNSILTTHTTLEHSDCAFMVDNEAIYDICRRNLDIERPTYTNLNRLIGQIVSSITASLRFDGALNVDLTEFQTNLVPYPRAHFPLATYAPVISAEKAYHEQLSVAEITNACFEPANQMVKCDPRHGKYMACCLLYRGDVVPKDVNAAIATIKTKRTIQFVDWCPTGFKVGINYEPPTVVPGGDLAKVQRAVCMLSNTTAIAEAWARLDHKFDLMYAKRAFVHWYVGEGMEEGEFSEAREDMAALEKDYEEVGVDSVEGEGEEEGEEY
Sequence of subtilisin-treated microtubules (pig) (Q767L7 whole entry, chain 2 of 2, further chain): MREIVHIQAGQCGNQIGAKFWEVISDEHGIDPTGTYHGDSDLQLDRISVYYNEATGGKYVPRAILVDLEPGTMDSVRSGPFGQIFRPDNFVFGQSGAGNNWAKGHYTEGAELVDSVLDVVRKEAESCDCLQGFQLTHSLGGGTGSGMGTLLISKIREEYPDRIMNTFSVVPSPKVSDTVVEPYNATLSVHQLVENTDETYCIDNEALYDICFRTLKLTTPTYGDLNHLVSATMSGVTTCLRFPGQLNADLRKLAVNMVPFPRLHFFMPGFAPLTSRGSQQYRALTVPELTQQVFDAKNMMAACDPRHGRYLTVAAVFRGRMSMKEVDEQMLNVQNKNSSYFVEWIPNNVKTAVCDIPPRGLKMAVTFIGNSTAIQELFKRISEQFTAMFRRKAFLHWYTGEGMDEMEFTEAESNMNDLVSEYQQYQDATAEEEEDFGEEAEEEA

Molecule: spastin E442Q mutant (from UniProt Q9UBP0 227-616) (domain or fragment)
- stoichiometry N (enzyme∶tubulin) [1]: 1.3
- stoichiometry N (enzyme∶tubulin) [2]: 2.7
- stoichiometry N (enzyme∶tubulin) [3]: 2.2

Molecule: wild type spastin (co-sedimentation assays) (from UniProt Q9UBP0 227-616) (domain or fragment)
- stoichiometry N (enzyme∶tubulin) [1]: 1.4
- stoichiometry N (enzyme∶tubulin) [3]: 2.1

Molecule: katanin E309Q (Walker B mutant) (from UniProt O75449 1-491) (enzyme)
- fold reduction of affinity against native microtubules [4]: > 10 fold
- fraction bound at 4 µM microtubules [4]: < 0.33
- half-maximal saturation (microtubule concentration) [5]: 0.4 µM
- stoichiometry N (enzyme∶tubulin) [1]: 1.1
- stoichiometry N (enzyme∶tubulin) [2]: 3
- stoichiometry N (enzyme∶tubulin) [3]: 2.8

Molecule: GFP-FLAG HsKatanin (full-length katanin p60) (from UniProt O75449 1-491) (enzyme)
- dwell time [6]: 7.3 s
- koff/kon [6]: 0.609 10 nM 10 µm
- landing rate [6]: 15.8
- dwell time [7]: > 246 s
- koff/kon [7]: 0.118 10 nM 10 µm
- landing rate [7]: 2.06
- dwell time [8]: 10.1 s
- koff/kon [8]: 0.684 10 nM 10 µm
- landing rate [8]: 8.73
- stoichiometry N (enzyme∶tubulin) [1]: 1.1
- dwell time [9]: 5.6 s
- koff/kon [9]: 2.82 10 nM 10 µm
- landing rate [9]: 4.64
- dwell time [10]: 4.02 s
- koff/kon [10]: 1.06 10 nM 10 µm
- landing rate [10]: 14.1
- stoichiometry N (enzyme∶tubulin) [3]: 2.8
- dwell time [11]: 2.5 s
- koff/kon [11]: 13.6 10 nM 10 µm
- landing rate [11]: 1.93

B1: Kat12 (domain or fragment)
chain: MSLLMISENVKLAREYALLGNYDSAMVYYQGVLDQMNKYLYSVKDTYLQQKWQQVWQEINVEAKHVKDIMKTLESFKLDSTPLKAAQHDLPASEGEVWSMPVPVERRPSPGPRKRQSSQYSDPKSHGNRPSTTVRVHRSSAQNVHNDRGKAVRCREKKEQNKGREEKNKSPAAVTEPETNK
- half-maximal saturation (microtubule concentration) [12]: 0.34 µM

B2: coiled-coil-Δ227 HsSpastin construct (wild type) (other)
chain: AEECKRRYEKEKEKNARLKGKVEKLEIELARWRASESGAVPKRKDPLTHTSNSLPRSKTVMKTGSAGLSGHHRAPSYSGLSMVSGVKQGSGPAPTTHKGTPKTNRTNKPSTPTTATRKKKDLKNFRNVDSNLANLIMNEIVDNGTAVKFDDIAGQDLAKQALQEIVILPSLRPELFTGLRAPARGLLLFGPPGNGKTMLAKAVAAESNATFFNISAASLTSKYVGEGEKLVRALFAVARELQPSIIFIDEVDSLLCERREGEHDASRRLKTEFLIEFDGVQSAGDDRVLVMGATNRPQELDEAVLRRFIKRVYVSLPNEETRLLLLKNLLCKQGSPLTQKELAQLARMTDGYSGSDLTALAKDAALGPIRELKPEQVKNMSASEMRNIRLSDFTESLKKIKRSVSPQTLEAYIRWNKDFGDTTV
modifications: disulphide bridge between the cysteines introduced in the coiled coil domain (oxidizing conditions)
- stoichiometry N [13]: 2

B3: Kat2 (domain or fragment)
chain: WQEINVEAKHVKDIMKTLESFKLDSTPLKAAQHDLPASEGEVWSMPVPVERRPSPGPRKRQSSQYSDPKSHGNRPSTTVRVHRSSAQNVHNDRGKAVRCREKKEQNKGREEKNKSPAAVTEPETNK
- half-maximal saturation (microtubule concentration) [12]: 0.4 µM

B4: GFP-Δ227 HsSpastin (domain or fragment)
chain: SESGAVPKRKDPLTHTSNSLPRSKTVMKTGSAGLSGHHRAPSYSGLSMVSGVKQGSGPAPTTHKGTPKTNRTNKPSTPTTATRKKKDLKNFRNVDSNLANLIMNEIVDNGTAVKFDDIAGQDLAKQALQEIVILPSLRPELFTGLRAPARGLLLFGPPGNGKTMLAKAVAAESNATFFNISAASLTSKYVGEGEKLVRALFAVARELQPSIIFIDEVDSLLCERREGEHDASRRLKTEFLIEFDGVQSAGDDRVLVMGATNRPQELDEAVLRRFIKRVYVSLPNEETRLLLLKNLLCKQGSPLTQKELAQLARMTDGYSGSDLTALAKDAALGPIRELKPEQVKNMSASEMRNIRLSDFTESLKKIKRSVSPQTLEAYIRWNKDFGDTTV
- dwell time [6]: 9.6 s
- landing rate [6]: 24.2
- dwell time [7]: > 254 s
- landing rate [7]: 13.4
- dwell time [8]: 55.7 s
- landing rate [8]: 21.2
- dwell time [9]: 6.4 s
- landing rate [9]: 4.07
- dwell time [10]: 10.1 s
- landing rate [10]: 22.7
- dwell time [11]: 4.2 s
- landing rate [11]: 1.61
